Patent US20120270914A1 (Stanford University, published 2012)

Molecular target: NFL-c-Myc (firefly, UniProt P08659 1-398 = luciferase, phosphorylated in the cells at S62 and T58 (c-Myc numbering))
Assay: cell-based or functional assay

Chain of NFL-c-Myc (P08659 other isoform, or with tags, fused parts or gaps limits assumed): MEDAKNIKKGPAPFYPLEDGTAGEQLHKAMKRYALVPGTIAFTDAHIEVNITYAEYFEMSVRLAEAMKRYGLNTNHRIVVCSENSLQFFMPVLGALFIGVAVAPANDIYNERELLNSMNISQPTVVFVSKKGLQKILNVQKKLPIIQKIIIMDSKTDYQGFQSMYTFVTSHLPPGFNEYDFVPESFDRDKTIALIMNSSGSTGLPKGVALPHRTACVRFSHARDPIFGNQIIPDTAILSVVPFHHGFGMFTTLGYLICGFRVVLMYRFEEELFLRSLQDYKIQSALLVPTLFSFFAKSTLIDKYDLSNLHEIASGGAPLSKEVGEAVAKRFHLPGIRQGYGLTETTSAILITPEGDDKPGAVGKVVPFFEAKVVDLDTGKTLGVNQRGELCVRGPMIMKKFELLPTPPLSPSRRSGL

complemented FL activity (BLI, SKBR3 cells), compared with the pairing of GSK Full-CFL and NFL-SH2-SH2 [fold]	complemented FL activity of SKBR3 xenografts in nude mice, normalized to hRL activity, compared with pcDNA3.1(+) vector [fold]	Binder
> 10		GSK Full-CFL (other, not shown: large carriers) MSGRPRTTSFAESCKPVQQPSAFGSMKVSRDKDGSKVTTVVATPGQGPDRPQEVSYTDTKVIGNGSFGVVYQAKLCDSGELVAIKKVLQDKRFKNRELQIMRKLDHCNIVRLRYFFYSSGEKKDEVYLNLVLDYVPETVYRVARHYSRAKQTLPVIYVKLYMYQLFRSLAYIHSFGICHRDIKPQNLLLDPDTAVLKLCDFGSAKQLVRGEPNVSYICSRYYRAPELIFGATDYTSSIDVWSAGCVLAELLLGQPIFPGDSGVDQLVEIIKVLGTPTREQIREMNPNYTEFKFPQIKAHPWTKDSSGTGHFTSGVRVFRPRTPPEAIALCSRLLEYTPTARLTPLEACAHSFFDELRDPNVKLPNGRDTPALFNFTTQELSSNPPLATILIPPHARIQAAASTPTNATAASDANTGDRGQTNNAASASASNST
	10.6	GSK 35-433-CFL (other, not shown: large carriers) SKVTTVVATPGQGPDRPQEVSYTDTKVIGNGSFGVVYQAKLCDSGELVAIKKVLQDKRFKNRELQIMRKLDHCNIVRLRYFFYSSGEKKDEVYLNLVLDYVPETVYRVARHYSRAKQTLPVIYVKLYMYQLFRSLAYIHSFGICHRDIKPQNLLLDPDTAVLKLCDFGSAKQLVRGEPNVSYICSRYYRAPELIFGATDYTSSIDVWSAGCVLAELLLGQPIFPGDSGVDQLVEIIKVLGTPTREQIREMNPNYTEFKFPQIKAHPWTKDSSGTGHFTSGVRVFRPRTPPEAIALCSRLLEYTPTARLTPLEACAHSFFDELRDPNVKLPNGRDTPALFNFTTQELSSNPPLATILIPPHARIQAAASTPTNATAASDANTGDRGQTNNAASASASNST
